The record followed here is publication PMC3317677 (International Journal of Molecular Sciences, 2012).

For assay [1], the target named is T1, DENV4 envelope protein domain III (EDIII, aa295-395) (Dengue virus type 4, …, UniProt Q58HT7, strain).
T1 construct: also called DENV4 EDIII; EDIII from DENV4
Kind of assay: ELISA. The following applies: both partners purified.

In assay [2] the target is T2, DENV1 envelope protein domain III (EDIII, aa295-395) (Dengue virus type 1, Hawaii, strain).
T2 construct: also called DENV1 EDIII; EDIII from DENV1
T2 chain: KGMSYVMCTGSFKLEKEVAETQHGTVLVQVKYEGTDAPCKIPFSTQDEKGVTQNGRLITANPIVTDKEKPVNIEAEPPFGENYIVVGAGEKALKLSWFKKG
Kind of assay: ELISA. The following applies: both partners purified.

The target of assay [3] is T3, DENV3 envelope protein domain III (EDIII, aa295-395) (Dengue virus type 3, …, UniProt P27915, strain).
T3 construct: also called DENV3 EDIII; EDIII from DENV3
Kind of assay: ELISA. The following applies: both partners purified.

Assay [4] concerns the target DENV2 envelope (E) protein in DENV2 infected BHK-21 cells (Dengue virus type 2, GenBank EU081177.1, UniProt A9LIC9, strain). Kind of assay: immunostaining of cells or tissue. The following applies: one partner purified.

Changes are numbered by the printed parent chain.

B1: C9 IgG (chimeric mouse/human IgG) (antibody, V domains shown)
VH: EVQLQQSGAELVRPGASVKLSCKALGYRFTDYEMYWVKQTPAHGLEWIGGIHPRSGNTAYNQKFKDKATLTADKSSSTAYMELSSLTSEDSAVYYCTTSLYWGQGTLVTVSA
VL: DVLMTQTPLSLPVILGDQASISCRSSQSLVHSNGNTYLHWYLQKPGQSPKLLIYSIFNRFSGVPDRFSGSGSGTDFTLKISRVEAEDLGVYFCSQGTHVPWTFGGGTKLEIK
notes: Bivalent IgG
Turning to B1, the results for the binding result in assay [1] and in assay [4] were “no binding” and “binds”, respectively. Moreover, the “fold stronger interaction than the C9 Fab (average)” value in assay [2] and in assay [3] was ~30 times throughout.

B2: C9 Fab (chimeric mouse/human Fab) (Fab, V domains shown)
VH: B1 VH
VL: B1 VL
With B2, the binding result in assay [1] is on record as “no binding”.

B3: F1 Fab (chimeric mouse/human Fab) (Fab, V domains shown)
VH: B1 VH with Q3K, Q5V, Q6E
VL: B1 VL with V2I, T7S, I14S, N33T, S55K, I56V, F57S, I111L
In the case of B3, the binding result in assay [2] and in assay [3] was “binds” throughout.
